Experimental findings from IntAct's records for PubMed 23825108 are described below.

The target in the assay is mmac_human MMACHC (UniProt Q9Y4U1).
mmac_human MMACHC, sequence (Q9Y4U1 whole entry): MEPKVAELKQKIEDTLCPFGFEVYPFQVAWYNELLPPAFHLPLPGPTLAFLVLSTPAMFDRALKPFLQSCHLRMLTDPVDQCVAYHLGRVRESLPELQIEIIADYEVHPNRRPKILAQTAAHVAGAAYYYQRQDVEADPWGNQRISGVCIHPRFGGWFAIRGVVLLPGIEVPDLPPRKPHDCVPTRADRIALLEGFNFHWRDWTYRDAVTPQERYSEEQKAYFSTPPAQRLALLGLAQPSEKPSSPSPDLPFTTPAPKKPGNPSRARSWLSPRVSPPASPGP

Methionine synthase (Homo sapiens), Q99707 P1173L, sequence (Q99707 whole entry P1173L): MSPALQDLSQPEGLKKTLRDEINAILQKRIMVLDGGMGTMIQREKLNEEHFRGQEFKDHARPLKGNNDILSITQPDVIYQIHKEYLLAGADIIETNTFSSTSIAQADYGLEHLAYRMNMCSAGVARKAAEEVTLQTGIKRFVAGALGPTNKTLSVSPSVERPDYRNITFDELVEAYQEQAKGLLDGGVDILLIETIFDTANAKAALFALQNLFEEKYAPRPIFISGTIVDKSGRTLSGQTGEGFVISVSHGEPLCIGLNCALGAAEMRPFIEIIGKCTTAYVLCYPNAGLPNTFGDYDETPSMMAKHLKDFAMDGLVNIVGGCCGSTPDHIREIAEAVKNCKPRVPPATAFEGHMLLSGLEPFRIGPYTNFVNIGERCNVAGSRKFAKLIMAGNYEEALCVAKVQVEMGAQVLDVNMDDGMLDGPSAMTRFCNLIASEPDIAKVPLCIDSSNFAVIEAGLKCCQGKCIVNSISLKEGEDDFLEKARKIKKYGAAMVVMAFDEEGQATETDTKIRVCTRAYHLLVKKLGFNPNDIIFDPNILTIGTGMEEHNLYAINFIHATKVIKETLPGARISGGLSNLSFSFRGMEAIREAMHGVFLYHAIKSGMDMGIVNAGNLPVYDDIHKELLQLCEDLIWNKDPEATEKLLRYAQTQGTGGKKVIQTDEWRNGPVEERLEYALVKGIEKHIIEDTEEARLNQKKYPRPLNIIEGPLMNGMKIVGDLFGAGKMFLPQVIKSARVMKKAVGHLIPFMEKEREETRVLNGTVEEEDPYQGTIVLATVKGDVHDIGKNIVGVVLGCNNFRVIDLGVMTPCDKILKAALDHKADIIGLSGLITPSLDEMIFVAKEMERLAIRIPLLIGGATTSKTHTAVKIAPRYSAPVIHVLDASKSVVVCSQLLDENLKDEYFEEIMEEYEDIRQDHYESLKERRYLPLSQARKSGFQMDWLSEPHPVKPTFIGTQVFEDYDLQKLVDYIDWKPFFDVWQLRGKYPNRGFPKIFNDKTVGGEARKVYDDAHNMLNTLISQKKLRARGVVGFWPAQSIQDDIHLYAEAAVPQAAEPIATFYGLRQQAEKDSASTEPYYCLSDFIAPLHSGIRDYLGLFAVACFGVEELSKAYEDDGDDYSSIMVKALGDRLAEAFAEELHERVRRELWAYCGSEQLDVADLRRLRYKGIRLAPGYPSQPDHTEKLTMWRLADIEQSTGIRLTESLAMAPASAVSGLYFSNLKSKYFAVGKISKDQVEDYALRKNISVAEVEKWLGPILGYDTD

Consider “Methionine synthase (Homo sapiens), Q99707 P1173L”, for which the “effect of a mutation on the interaction” value is “increasing interaction strength”.
